Residue numbers refer to the chain shown, from its start.
B1: SD1018 (VHH)
VHH: EVQLVESGGGLVQAGGSLRLSCAASGQTYHMGWFRQTPGNERESVAAVTWSGAVTRYADSVKGRFTISRDNAKNTVYLQMNSLVPEDTAIYYCAATRSMAPIIQLSPGSYDYWGPGTQVTVSS
B2: SD1035 (VHH)
VHH: EVQLVESGGGLVQAGGTLRLSCAASGSAVSISRMAWYRQAPGKQRELVADIFSGGGTNYADSVKGRFTISRDNAKNTVDLQMNSLKPEDTAVYYCSARSAVAAIHWDQYDYWGQGTQVTVSS
B3: SD1027 (VHH)
VHH: EVQLVESGGGMVQAGGSLRLSCAASGGTFSLYHMGWFRQAPGEEREFVAAISGSGGNTYYADSVKGRFTISRDNNKNTVYLQMSSLEPEDTAVYFCAAMKWPGILRDANAYDYWGQGTQVTVSS
B4: SD1071 (VHH)
VHH: EVQLVESGGGLVQTGESLRLSCAFSGFTYSTYWMYWVRQGPEKGLKWVSSTNAAGTVTYYAANVRDRFTASKDNAKNTLYLQMNRLKPEDTGLYYCASKDGLIVAATLDDYDYRGQGTQVTVSS
B5: SD1047 (VHH)
VHH: EVQLVESGGGLVQAGGSLRISCAASGRTYAMAWFRQAPGKEREFVAHINALGTRTYYSDSVKDRFTISRDNAKNTEYLQMNSLKPEDTAVYYCVAGGQWRAAPVAAAESYDFWGQGTQVTVSS
B6: SD3031 (VHH)
VHH: EVQLVESGGGLVQPGGSLRLSCAVSISIFDIYAMDWYRQAPGKQRDLVATSFRDGSTNYADSVKGRFTISRDNAKNTLYLQMNSLKPEDTAVYLCHVSLYRDPLGVAGGVGVYWGKGALVTVSS
B7: SD3078 (VHH)
VHH: EVQLVESGGGVVQPGGSLRLSCAASISIFDIYAMDWYRQAPGKQRELVSVSFRDGSTYYADSVKGRFTISRDNSKNTLYLQMNSLRAEDTAVYYCHVSLYRDPLGVAGGLGVYWGQGTLVTVSS
B8: SD3080 (VHH)
VHH: B7 VHH with S49A, A87P
B9: SD3089 (VHH)
VHH: B7 VHH with D35H
B10: SD3068 (VHH)
VHH: EVQLVESGGGLVQPGGSLRLSCAASGRTLSIYSMGWFRQAPGKEREFVSTIGWNSGRTFYPDSLKGRFTISRDNSKNTLYLQMNSLRAEDTAVYYCAAAKGPLRLSSQADYWGQGTLVTVSS
B11: SD3067 (VHH)
VHH: B10 VHH with S49A
B12: SD3023 (VHH)
VHH: EVQLLESGGGLVQAGGSLRLSCAASGRTYAMSWFRQAPGKEREFVSHINALGTRTYYADSVKGRFTISRDNSKNTLYLQMNSLRPEDTAVYYCTAQGQWRAAPVAVAAEYEFWGQGTQVTVSS
B13: SD3098 (VHH)
VHH: B12 VHH with A14P, S32G, S46A, H47A, Q118L
B14: SD3025 (VHH)
VHH: B12 VHH with A14P, S46A, P85A
B15: SD3027 (VHH)
VHH: B12 VHH with H47A
B16: SD3096 (VHH)
VHH: B12 VHH with A14P, S32G, S46A, L76V, Q118L
B17: SD3028 (VHH)
VHH: B12 VHH with S46A
B18: SD3094 (VHH)
VHH: B12 VHH with A14P, S32G, S46A, P85A, Q118L
B19: SD3026 (VHH)
VHH: B12 VHH with A14P, H47A, P85A
B20: SD3024 (VHH)
VHH: B12 VHH with A14P, P85A
B21: SD3095 (VHH)
VHH: B12 VHH with A14P, S32G, S46A, Q118L
B22: SD3014 (VHH)
VHH: B7 VHH with S49A, Y94L, L110M, Q116K, T118A
B23: SD3020 (VHH)
VHH: B7 VHH with D35H, S49A, A87P, Y94L, L110M, Q116K, T118A
B24: SD3017 (VHH)
VHH: B7 VHH with D35H, S49A, V50T, Y94L, L110M, Q116K, T118A
B25: SD3016 (VHH)
VHH: B7 VHH with S49A, A87P, Y94L, L110M, Q116K, T118A
B26: SD3015 (VHH)
VHH: B7 VHH with Y94L, L110M, Q116K, T118A
B27: SD3032 (VHH)
VHH: B6 VHH with V110A
B28: SD3033 (VHH)
VHH: B6 VHH with V110F
B29: SD3019 (VHH)
VHH: B7 VHH with D35H, Y94L, L110M, Q116K, T118A
B30: SD3018 (VHH)
VHH: B7 VHH with D35H, S49A, Y94L, L110M, Q116K, T118A
B31: SD3041 (VHH)
VHH: B10 VHH with G35S, T50A, F59Y, P61A, L64V, L117Q
B32: SD3048 (VHH)
VHH: B10 VHH with P14A, G35S, F59Y, P61A, L64V, S75A, K76R, L117Q
B33: SD3046 (VHH)
VHH: B10 VHH with P14A, G35S, F59Y, P61A, L64V, L117Q
B34: SD3045 (VHH)
VHH: B10 VHH with P14A, G35S, T50A, F59Y, P61A, L64V, L117Q
B35: SD3042 (VHH)
VHH: B10 VHH with G35S, F59Y, P61A, L64V, L117Q
B36: SD3043 (VHH)
VHH: B10 VHH with G35S, S49A, F59Y, P61A, L64V, L117Q
B37: SD3044 (VHH)
VHH: B10 VHH with G35S, F59Y, P61A, L64V, S75A, K76R, L117Q
B38: SD3047 (VHH)
VHH: B10 VHH with P14A, G35S, S49A, F59Y, P61A, L64V, L117Q
B39: SD3103 (VHH)
VHH: EVQLVESGGGLVQPGGSLRLSCAISGLSLDTYAVGWFRQAPGKEREGVSCISSGHGDTYYADSVKGRFTISTDNSKNTLYLQMNSLRAEDTAVYYCATESRYYCSDNWPAPQRYIYWGQGTLVTVSS
B40: SD3104 (VHH)
VHH: B39 VHH with D57N

Target: HA of H1N1 A/New Caledonia/20/1999 (influenza A virus)
Assay: cell-based or functional assay

Question: B1 was tested. Which VNA titer did it give?
Answer: > 1000 nM

Question: B2 was tested. Which VNA titer did it give?
Answer: 74.8 nM

Question: For B3, which VNA titer is on record?
Answer: 862 nM

Question: How did the VNA titer turn out when B4 was run?
Answer: 1260 nM

Target: HA of H3N2 A/Brisbane/10/2007 (influenza A virus)
Assay: cell-based or functional assay

Question: How did the VNA titer turn out when B1 was run?
Answer: > 1000 nM

Question: How did the VNA titer turn out when B3 was run?
Answer: > 1000 nM

Question: B4 was tested. Which VNA titer did it give?
Answer: > 1000 nM

Target: HA of H5N1 A/Vietnam/1194/04 (influenza A virus)
Assay: cell-based or functional assay

Question: How did the VNA titer turn out when B1 was run?
Answer: 615 nM

Question: With B3 as the binder, how does the VNA titer read?
Answer: > 1000 nM

Question: Which VNA titer does the source give for B5 here?
Answer: > 1000 nM

Question: For B4, which VNA titer is on record?
Answer: 111 nM

Target: HA of H7N3 A/NIBRG/60 (A/mallard/NL/12/00) (influenza A virus)
Assay: cell-based or functional assay

Question: With B1 as the binder, how does the VNA titer read?
Answer: > 1000 nM

Question: For B2, which VNA titer is on record?
Answer: > 1000 nM

Question: How did the VNA titer turn out when B3 was run?
Answer: > 1000 nM

Question: Which VNA titer does the source give for B5 here?
Answer: 510 nM

Question: Which VNA titer does the source give for B4 here?
Answer: > 1000 nM

Target: hemagglutinin (HA) of influenza A/Brisbane/10/07 (H3N2) (influenza A virus A/Brisbane/10/07 (H3N2))
Assay: cell-based or functional assay

Question: How did the VNA IC50 turn out when B6 was run?
Answer: > 1000 nM

Question: Which VNA IC50 does the source give for B7 here?
Answer: 632 nM

Question: With B8 as the binder, how does the VNA IC50 read?
Answer: 632 nM

Question: B9 was tested. Which VNA IC50 did it give?
Answer: 1190 nM

Question: How did the VNA IC50 turn out when B10 was run?
Answer: 4 nM

Question: For B11, which VNA IC50 is on record?
Answer: 3 nM

Question: Which VNA IC50 does the source give for B12 here?
Answer: 64 nM

Question: With B13 as the binder, how does the VNA IC50 read?
Answer: 4 nM

Question: For B14, which VNA IC50 is on record?
Answer: 160 nM

Question: B15 was tested. Which VNA IC50 did it give?
Answer: 16 nM

Question: B16 was tested. Which VNA IC50 did it give?
Answer: 26 nM

Question: B17 was tested. Which VNA IC50 did it give?
Answer: 101 nM

Question: How did the VNA IC50 turn out when B18 was run?
Answer: 8 nM

Question: B19 was tested. Which VNA IC50 did it give?
Answer: 16 nM

Question: Which VNA IC50 does the source give for B20 here?
Answer: 80 nM

Question: B21 was tested. Which VNA IC50 did it give?
Answer: 8 nM

Target: hemagglutinin (HA) of influenza A/New Caledonia/20/99 (H1N1) (influenza A virus A/New Caledonia/20/99 (H1N1))
Assay: cell-based or functional assay

Question: For B22, which VNA IC50 is on record?
Answer: 3 nM

Question: For B23, which VNA IC50 is on record?
Answer: 4 nM

Question: With B6 as the binder, how does the VNA IC50 read?
Answer: 37 nM

Question: With B24 as the binder, how does the VNA IC50 read?
Answer: 4 nM

Question: For B7, which VNA IC50 is on record?
Answer: 8 nM

Question: B25 was tested. Which VNA IC50 did it give?
Answer: 3 nM

Question: B26 was tested. Which VNA IC50 did it give?
Answer: 3 nM

Question: B8 was tested. Which VNA IC50 did it give?
Answer: 5 nM

Question: How did the VNA IC50 turn out when B27 was run?
Answer: > 500 nM

Question: With B28 as the binder, how does the VNA IC50 read?
Answer: 51 nM

Question: For B29, which VNA IC50 is on record?
Answer: 4 nM

Question: With B30 as the binder, how does the VNA IC50 read?
Answer: 6 nM

Question: For B9, which VNA IC50 is on record?
Answer: 3 nM

Target: hemagglutinin (HA) of influenza A/New York/107/03 (PR8) (influenza A virus A/New York/107/03 (PR8))
Assay: cell-based or functional assay

Question: How did the VNA IC50 turn out when B31 was run?
Answer: > 1000 nM

Question: Which VNA IC50 does the source give for B32 here?
Answer: 858 nM

Question: How did the VNA IC50 turn out when B33 was run?
Answer: > 1000 nM

Question: For B34, which VNA IC50 is on record?
Answer: > 1000 nM

Question: Which VNA IC50 does the source give for B35 here?
Answer: > 1000 nM

Question: B36 was tested. Which VNA IC50 did it give?
Answer: > 1000 nM

Question: Which VNA IC50 does the source give for B37 here?
Answer: > 1000 nM

Question: How did the VNA IC50 turn out when B38 was run?
Answer: > 1000 nM

Question: B10 was tested. Which VNA IC50 did it give?
Answer: 26 nM

Question: With B11 as the binder, how does the VNA IC50 read?
Answer: 16 nM

Question: With B12 as the binder, how does the VNA IC50 read?
Answer: 16 nM

Question: How did the VNA IC50 turn out when B13 was run?
Answer: 16 nM

Question: B14 was tested. Which VNA IC50 did it give?
Answer: 13 nM

Question: B15 was tested. Which VNA IC50 did it give?
Answer: 6 nM

Question: Which VNA IC50 does the source give for B16 here?
Answer: 5 nM

Question: With B17 as the binder, how does the VNA IC50 read?
Answer: 26 nM

Question: Which VNA IC50 does the source give for B18 here?
Answer: 6 nM

Question: How did the VNA IC50 turn out when B19 was run?
Answer: 8 nM

Question: With B20 as the binder, how does the VNA IC50 read?
Answer: 20 nM

Question: How did the VNA IC50 turn out when B21 was run?
Answer: 6 nM

Target: hemagglutinin (HA) of influenza A/Vietnam/1194/04 (H5N1) (influenza A virus A/Vietnam/1194/04 (H5N1))
Assay: cell-based or functional assay

Question: Which VNA IC50 does the source give for B22 here?
Answer: 11 nM

Question: Which VNA IC50 does the source give for B23 here?
Answer: 15 nM

Question: For B6, which VNA IC50 is on record?
Answer: 51 nM

Question: Which VNA IC50 does the source give for B24 here?
Answer: 11 nM

Question: With B7 as the binder, how does the VNA IC50 read?
Answer: 20 nM

Question: Which VNA IC50 does the source give for B25 here?
Answer: 8 nM

Question: For B26, which VNA IC50 is on record?
Answer: 6 nM

Question: For B8, which VNA IC50 is on record?
Answer: 16 nM

Question: For B27, which VNA IC50 is on record?
Answer: > 500 nM

Question: Which VNA IC50 does the source give for B28 here?
Answer: 316 nM

Question: Which VNA IC50 does the source give for B29 here?
Answer: 8 nM

Question: B30 was tested. Which VNA IC50 did it give?
Answer: 8 nM

Question: With B9 as the binder, how does the VNA IC50 read?
Answer: 20 nM

Target: hemagglutinin (HA) of influenza B/Harbin/7/94 (Yamagata) (influenza B virus)
Assay: cell-based or functional assay

Question: For B39, which VNA IC50 is on record?
Answer: > 1000 nM

Question: B40 was tested. Which VNA IC50 did it give?
Answer: > 1000 nM

Target: hemagglutinin (HA) of influenza B/Lee/40 (Old) (influenza B virus) (UniProt P03460)
Assay: cell-based or functional assay

Question: For B39, which VNA IC50 is on record?
Answer: > 1000 nM

Question: B40 was tested. Which VNA IC50 did it give?
Answer: > 1000 nM
